Assay results: the DeepSol protein solubility set

Assay: soluble on expression in E. coli; label from the status in PepcDB or PDB records

Sequence	soluble on expression in E. coli
MSKLDTIFEVVISRDKMEATLKQHEPFPEDHPVTKDELLSFMKEHGVVFGVKESVIDQVVKSEKGLTSSVKVAEGLQPQNGKHGYLQPIQHEEEERDVHSISAMNLRDVLSIPEVKQGQVIGKKIPATLGEDGMNVLGEPIKAKPGREFVLRPGKNSTVDEANGTLVAAVDGQMSVDKRTIHVYPVYEVPGDLTMKHGNISFIGNVIIRGHVPDGFVVKAGGDIRVFGTVEGATLEAGGSIFVGAGIVGQNRGCIRAEGGLHTTFINQAKVEVGGDIEVVQSILHSTCTAGGKIICTRGKGNIVGGALSAEDHIYAKEIGNSMHTKTSLYIGAKEKWVTKEKQLAKEYKTTEEELKKLSLLLQKFQELEKENGLTANGRVQRLRVKNTLVQVKEKHEQIKEQLEDVQENLTLNQAGSIVVEQTLYPNVSAHFGKYRRKIVSNHSNVKLSLVDQEIQLSSRLEHHHHHH	soluble
GSMNPEEKTVMLYNEYAEQAVLGSILTEPELIKECPLTPEHFSPGKHFNIYFTMQDLDRKGQSVDFTSIAARVGEKLPQLGGFGYLTELAASVASTTTFKQHCQTVSEYFQKRKAISIAQQIIENVNESDDGPVKPIQEAVSELMEIEASGTDDDDGSIDEALVTVYEEIESADGNITGVPSGFTELDRMTYGYKRRNFVLIAARPSMGKTAFALKQAKNMSDNDDVVNLHSLEMGKKENIKRLIVTAGSINAQKIKAARRDFASEDWGKLSMAIGEISNSNINIFDKAGQSVNYIWSKTRQTKRKNPGKRVIVMIDYLQLLEPAKANDSRTNQISQISRDLKKMARELDVVVIALSQLSRQVEQRQDKRPMLSDLRESGQLEQDADIIEFLYRDDYYDKESESKNIVEVIIAKHRDGPVGTVSLAFIKEYGNFVNLERRFDDR	soluble
MTESFAELFEASQANLAKLKPGSIVTGTVVEVRGDVVVINAGLKSEGIVPIEQFRNDAGEIDVGVGDQVKVALDSIENGFGETVLSREKAKRAMVWDELEEALEKNETITGRISGKVKGGFTVDIKDVRAFLPGSLVDVRPVRDPAYLEGKELEFKLIKLDRKRNNVVVSRRAVVESEHSEEREQLMDKLQEGAILKGVVKNLTDYGAFVDLGGIDGLLHITDMAWKRVRHPSEVVNVGDELDVRVLKFDRERNRVSLGLKQLGEDPWDNIARRYPANSRVFGKVSNVTDYGAFVEIEPGVEGLVHVSEMDWTNKNVNPSKVVQVGDEVEVMVLDVDEERRRISLGMKQVAANPWETFAATHKKNDKVSGQIKSITDFGIFIGLDGGIDGLVHLSDISWNTTGEDVVRNYKKGDTLEAVVLAVDPERERISLGVKQLEQDPFGQYMASNPKGSKVEGVVREVDAKGATIDLADGIEGYVAARDIANERVDDATQHLKVGDKIEAKFVGMDRKGRTLQLSIKAKDDAEMREVLEEYQSASGGTTQLGALLRAQLNSNKSELEHHHHHH	soluble
MGSDKIHHHHHHMRIAAYENFITKLLMNNKCMDINEIDKYILRTTSNNYNLVKKQLDRTNKLLEERYERYGCLTEEDNVEALKKGYYDLGKIGLTLEEIRKKIAKFQIDKESPMGIQIEKDWNFATFLLQDLLQLENMNLITYSRLLEERLSELSKNKTNKKTYNKPNNKETTIKTNSPTTNSSDIMTIDEICALLHLSKSKIYHMACAHEIPHHKLNPSKKGRLYFFRSEIEEWLRNKRIRTVDEFLLQFEN	not soluble
AIALWKLVENVKYEDIYEDRHDGVPSHSSRLSQLGSVSQGPYSSAPPLSHTPSSDFQPPYFPPPYQPLPYHQSQDPYSHVSDPYSLNALHQPQQHPWGSRQRQDLQGTESGGLLPQPRASLPQLSGLDPRRDYSTVRRPDVLLHSTHHGLEAGMGDGLSLHGLAHGMDDVQAVEDLNGAMNILDRTPLGNSRPSPILEPGIQSCLSHFSFITHGFGSPAICAALTALQNYLTEALKGLDKMFLNNPTPNRHTPADGSKGGEKEEKHRK	soluble
MPKRSKEDTEITIQKIMDAVVDQLLRLGYDKMSYTTLSQQTGVSRTGISHHFPKKTDFTAALDGRIFKMFIEHLEFEKGLDAFSQSWIKALEDSEFLAILRLLFHHIVTSESAHEFAANGIDRLYKMVESQFGSGGDKELEWLIGRSLIQMSK	not soluble
MATKSVLMLGSGFVTRPTLDVLTDSGIKVTVACRTLESAKKLSAGVQHSTPISLDVNDDAALDAEVAKHDLVISLIPYTFHATVIKSAIRQKKHVVTTSYVSPAMMELDQAAKDAGITVMNEIGLDPGIDHLYAIKTIEEVHAAGGKIKTFLSYCGGLPAPESSDNPLGYKFSWSSRGVLLALRNAASFYKDGKVTNVAGPELMATAKPYFIYPGFAFVAYPNRDSTPYKERYQIPEADNIVRGTLRYQGFPQFIKVLVDIGFLSDEEQPFLKEAIPWKEATQKIVKASSASEQDIVSTIVSNATFESTEEQKRIVAGLKWLGIFSDKKITPRGNALDTLCATLEEKMQFEEGERDLVMLQHKFEIENKDGSRETRTSSLCEYGAPIGSGGYSAMAKLVGVPCAVAVKFVLDGTISDRGVLAPMNSKINDPLMKELKEKYGIECKEKVVA	soluble
MSLARQNRFDRTSFQTQIIDLSHDGRGVARPHGEGDKVTFVTGALPGEVVIVEPVARNRHFDEARVVEVLQASPQRVIPRCSHFGVCSGCVLQHLAEDAQVVSKQRVLLESLERIGRVSPERVLPALAAESWGYRRKGRFSVRWVEKKGRTLVGFREHDPRFVADVSVCHTVVPQVGEKIALLATLLNSLDGRRDVPQIEFIAGDAVVALTVRHLQPLSEADRLALIEFGKEHGIAIFLQSGGVESVRLLWPDEVLLAFRLKPWDVEFVFRPLDFIQINGGLNEKMIAHALDLLGAGFGERVLDLFCGLGNFTLPLARTVDEVVGVEGDIGLVERARENARRNGLGNAEFFVADLTRDQRDAPWMRQGFDKLLLDPPRSGAIEVLKQLPLKMFERIVYVSCHPGSLARDADFLVNEQGFVLRAVGAMDMFPHTAHVESIAVFDRCEGHHHHHH	soluble
MGSSHHHHHHSSGLVPRGSHMNKPIGVIDSGVGGLTVAKEIMRQLPNETIYYLGDIGRCPYGPRPGEQVKQYTVEIARKLMEFDIKMLVIACNTATAVALEYLQKTLSISVIGVIEPGARTAIMTTRNQNVLVLGTEGTIKSEAYRTHIKRINPHVEVHGVACPGFVPLVEQMRYSDPTITSIVIHQTLKRWRNSESDTVILGCTHYPLLYKPIYDYFGGKKTVISSGLETAREVSALLTFSNEHASYTEHPDHRFFATGDTTHITNIIKEWLNLSVNVERISVND	soluble
MGSDKIHHHHHHETTSTQTVDEQAVFNDTQSAMLAVNGLHKLMWTGDLSSSAFYGGYDMLMIWYEVMGDDLVYTYSNAQFQKQAQWSSHRNATIGSATHFYRLLQYFISNSSMIIDNIDAAEGLESERNYIKGQAHFYRAFAYFTMVQMYGGRYKAEGDNTQLGVVIRNDNSTEPRARASVEEVYTQINEDIDLAIQLLGATEEKRTNKSHIDLHVARGLKARILLTQGKWLEAAEMAKLVVDLSGAKLQDDTYTTLNDRFSDQSNTEWLWGSNPLLQQAPNLTHFHGYMSNEIISYNGNTPRAIYNKLYDKISDTDVRKGIWFPRATDPNTLPRPIRAECNSKAYANYMANKFIVSDPTTKGGRDVPFMRLPEMMLIMAEGYARAGEPGKAAQALYPLASHRDPEYTLSTKTGENLIEEVMTQRRIELWGEGFRWFDLKRLNMDLDRGPAPRPEVFPNGLIEYWNKDAMPKVVDPEASNYNMYGDGTVTGNGNRYRPAGHRDWQWAIPDKETQLNPLCEPNP	not soluble
MTTAPAKISEYTVSTPDRTVASVRADGIVAATPLGSHGYAADAGGPHLAPGVSAAAVVPVSPFRVDRTNWVVCPPVSVTVARDETTVELHADGHAHGRVPVDSPVTLSWGTPLPIAVVSHAGTHGD	soluble
MLNQELELSLNMAFARAREHRHEFMTVEHLLLALLSNPSAREALEACSVDLVALRQELEAFIEQTTPVLPASEEERDTQPTLSFQRVLQRAVFHVQSSGRNEVTGANVLVAIFSEQESQAAYLLRKHEVSRLDVVNFISHGTRKDEPTQSSDPGSQPNSEEQAGGEERLENFTTNLNQLARVGGIDPLIGREKELERAIQVLCRRRKNNPLLVGESGVGKTAIAEGLAWRIVQGDVPEVMADCTIYSLDIGSLLAGTKYRGDFEKRFKALLKQLEQDTNSILFIDEIHTIIGAGAASGGQVDAANLIKPLLSSGKIRVIGSTTYQEFSNIFEKDRALARRFQKIDITEPSIEETVQIINGLKPKYEAHHDVRYTAKAVRAAVELAVKYINDRHLPDKAIDVIDEAGARARLMPVSKRKKTVNVADIESVVARIARIPEKSVSQSDRDTLKNLGDRLKMLVFGQDKAIEALTEAIKMARAGLGHEHKPVGSFLFAGPTGVGKTEVTVQLSKALGIELLRFDMSEYMERHTVSRLIGAPPGYVGFDQGGLLTDAVIKHPHAVLLLDEIEKAHPDVFNILLQVMDNGTLTDNNGRKADFRNVVLVMTTNAGVRETERKSIGLIHQDNSTDAMEEIKKIFTPEFRNRLDNIIWFDHLSTDVIHQVVDKFIVELQVQLDQKGVSLEVSQEARNWLAEKGYDRAMGARPMARVIQDNLKKPLANELLFGSLVDGGQVTVALDKEKNELTYGFQSAQKHKAEAAH	soluble
MGSDKIHHHHHHMSQILLIHSSVHGYTQKICEYLQRQLIEQDQLVTVASLAEAPDLALFDKVYIGASIRHGKHRPALYQFIEDHRAELDNKPSGFFSVSLVARKPNKNTPQTNSYMQQFLSQSPWQPKLLQVFGGNLDYQGYGAMDRNIIRFIMWLTKGPTDPNTKVEFTDWQKVDEFAQQIIEA	not soluble
MGSDKIHHHHHHMKVKLLSALNDNNVDMAQTNSQRQLAMTIFAIAGEFDQNLPLNLCLILDRSGSMHGQPIKTVIQAVEGLIDRLKVGDRISVVAFSGSVEVIIPNQVIEDPESIKSQIKSKLSASGGTAIAEGLELGITELMKGTRGAVSQAFLLTDGHGESSLRIWKWDIGRDDNKRCLKLAQKAAKLNLTINTFGFGNSWNQDLLEKIADVGGGTLAHIEHPEQAVEQFSRLFGRIQSIGLTNAYLLLSLVPNVRLAELKPIAQVAPDTIELPVERETDGSFAVRLGDLMQDVERVVLANIYLGQLPEGKQAIGHLQIRYDDPMVNQEDLLSPLMPIYADVVRAYQPASNPQVQQSILALAKYRQTQLAEAKLLQGDRTGAATMLQTAAKTALQIGDKGAATVLQTSATRLQAGEELSEADLKKTRIVSKTVLQE	not soluble
MGSDKIHHHHHHMSGFLTFDFENQAVRAFEHDGQEWFVAVDVCRCLRLENSRQALTRLSDDEKRSCNLNTLTDSKGIIFNAINDSDGIRAGNPNATIVNEPGLYRLIFTSTKPEAERLKRFVFHEVLPALRHTGCFAPEPVIDWEIAREQLSLVREARLAHGKEAAAALWRELGLPMPKDETSDKERRQAQGLMKYVYDFIDECMVFDQKAEVTGKEVYQRYQQWSATNNAPYIMNSSFGRFLIRAGIVKRHVSTGSRYIGVRLKHHIQITDQSS	not soluble
MKTQVAIIGAGPSGLLLGQLLHKAGIDNVILERQTPDYVLGRIRAGVLEQGMVDLLREAGVDRRMARDGLVHEGVEIAFAGQRRRIDLKRLSGGKTVTVYGQTEVTRDLMEAREASGATTVYQAAEVRLHDLQGERPYVTFERDGERLRLDCDYIAGCDGFHGISSQSIPAERLKVFERVYPFGWLGLLADTPPVSHELIYANHPRGFALCSQRSATRSRYYVQVPLTEKVEDWSDERFWTELKARLPAEVAEKLVTGPSLEKSIAPLRSFVVEPMQHGRLFLAGDAAHIVPPTGAKGLNLAASDVSTLYRLLLKAYREGRGELLERYSAICLRRIWKAERFSWWMTSVLHRFPDTDAFSQRIQQTELEYYLGSEAGLATIAENYVGLPYEEIE	soluble
MEYREFDFWYYKIGNGDANLTCKMSYNPKSPIFTDFPDTVVHTVLEKLLPAERMVVRNVSKKLRNLFDERYRVIKNVYMQVQDEEAILFFENHEELEKTFSCNGNDGNEKYLEIALEKVAKFTKNHKLEEFEVHFDDEAGEKHRWGLYDDVSDMFKASKAVLNTKKFSIELLRPDDAKAAFSHFKPGNLEDIEIEYFCTGYKYPKYPRCPRYDDDSDDSFEDNMGMYEQLTELAHWQKAKKVKIGVDDSLDFSIEALFHLENFEISLNKFTKNDAIKIRDVLLQTAHFQSGIITFSKDPGGTNMLKVFNPKYSGGENGPIIYKTKDSRFEIGLGYSSIEFKRI	not soluble
